In patent publication US20220193271A1 (REGENTS OF THE UNIVERSITY OF MICHIGAN, published 2022):
Blank lines part the entries; values can stand above or below the molecule they belong to. Primed or numbered codes have the meaning given here. Ends that are not written are not given here. Cy5.5 = cyanine fluorophore coupled as NHS ester to the lysine side chain; Cy5.5″ = fluorophore Cy5.5, coupled as NHS ester to Lys side chain

Experiments:
[1] = biological target: human cMet on cells (HT29 human colorectal cancer cells; S114 cells; human colon tissue and organoids) (human) (UniProt P08581); test: confocal microscopy, HT29 versus SW480 cells
Chain of human cMet on cells (HT29 human colorectal cancer cells; S114 cells; human colon tissue and organoids) (human) (P08581 25-1390): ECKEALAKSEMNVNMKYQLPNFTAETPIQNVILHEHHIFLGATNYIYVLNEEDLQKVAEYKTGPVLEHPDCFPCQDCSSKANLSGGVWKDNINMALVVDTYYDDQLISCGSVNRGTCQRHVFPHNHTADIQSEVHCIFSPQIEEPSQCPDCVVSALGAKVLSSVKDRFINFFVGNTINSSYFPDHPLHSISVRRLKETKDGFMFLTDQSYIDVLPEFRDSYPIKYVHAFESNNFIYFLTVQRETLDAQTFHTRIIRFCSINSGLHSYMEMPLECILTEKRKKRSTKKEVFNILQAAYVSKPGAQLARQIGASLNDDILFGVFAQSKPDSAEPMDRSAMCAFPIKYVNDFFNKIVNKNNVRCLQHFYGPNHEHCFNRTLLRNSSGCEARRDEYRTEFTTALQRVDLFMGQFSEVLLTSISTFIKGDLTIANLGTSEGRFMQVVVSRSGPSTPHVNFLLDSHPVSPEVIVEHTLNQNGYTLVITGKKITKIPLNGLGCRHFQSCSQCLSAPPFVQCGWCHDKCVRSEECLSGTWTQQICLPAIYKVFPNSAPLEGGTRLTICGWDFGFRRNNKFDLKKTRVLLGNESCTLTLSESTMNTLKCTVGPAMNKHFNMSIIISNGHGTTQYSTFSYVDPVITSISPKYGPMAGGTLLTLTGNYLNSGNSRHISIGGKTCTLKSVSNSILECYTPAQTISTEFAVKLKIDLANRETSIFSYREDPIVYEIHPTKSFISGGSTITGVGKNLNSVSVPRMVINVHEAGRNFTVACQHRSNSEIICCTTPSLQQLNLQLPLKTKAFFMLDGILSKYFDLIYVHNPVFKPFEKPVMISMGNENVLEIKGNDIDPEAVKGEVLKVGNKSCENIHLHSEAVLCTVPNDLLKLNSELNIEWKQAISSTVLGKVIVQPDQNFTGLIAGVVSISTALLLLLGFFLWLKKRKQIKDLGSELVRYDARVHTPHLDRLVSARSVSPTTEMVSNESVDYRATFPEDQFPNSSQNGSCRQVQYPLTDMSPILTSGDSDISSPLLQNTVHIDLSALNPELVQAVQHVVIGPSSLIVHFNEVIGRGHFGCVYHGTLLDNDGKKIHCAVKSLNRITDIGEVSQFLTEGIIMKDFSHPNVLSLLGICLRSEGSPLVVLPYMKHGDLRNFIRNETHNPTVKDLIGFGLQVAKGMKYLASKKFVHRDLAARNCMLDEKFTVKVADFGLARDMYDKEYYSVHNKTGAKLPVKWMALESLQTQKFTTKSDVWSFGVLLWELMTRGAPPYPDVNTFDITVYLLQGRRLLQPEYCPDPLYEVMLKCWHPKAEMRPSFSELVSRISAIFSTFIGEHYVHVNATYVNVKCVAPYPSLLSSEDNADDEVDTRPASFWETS

[2] = biological target: human cMet on cells (HT29 human colorectal cancer cells; S114 cells; human colon tissue and organoids) (human) (UniProt P08581); test: confocal microscopy, S114 versus NIH3T3 cells
[3] = biological target: human cMet on cells (HT29 human colorectal cancer cells; S114 cells; human colon tissue and organoids) (human) (UniProt P08581); test: confocal microscopy, HT29 cells with control or cMet siRNA
[4] = biological target: T1, human cMet on cells (HT29 human colorectal cancer cells; S114 cells; human colon tissue and organoids) (human, UniProt P08581 25-1390); test: confocal microscopy, HT29 versus SW480 cells, 5 µM peptide
T1 construct: whole, on cells; also called mesenchymal-epithelial transition factor
T1 sequence (P08581 25-1390): as above
Protocol: FIG. 10. Peptide validation with human colorectal cancer cells in vitro. […] Two-way ANOVA models were fit with terms for 6 conditions and 6 replicate slides on log-transformed data. Measurements were an average of 5 randomly chosen cells on 6 slides for each condition.
(§1) HT29, SW480, S114 and NIH3T3 cells were inoculated in 12-well cell culture plates with circle glass coverslips to about 80% confluence. The cells were blocked with 1×PBS plus 2% BSA for 1 hour at 4° C., then were incubated with 5 μM peptides for 10 min at RT in the dark, washed thrice, and fixed with 4% PFA for 5 min, washed with 1×PBS, then mounted on glass slides with ProLong Gold reagent containing DAPI (Invitrogen, Waltham, Mass.). As positive control, after blocking with 2% BSA for 1 hour at 4° C., A 1:3000 dilution of primary monoclonal rabbit anti-cMet antibody (Cell Signaling Technology, #8198) was incubated with cells overnight at 4° C. […] Confocal fluorescence images were collected using a 63× oil-immersion objective (Leica SP5 Inverted 2-Photon FLIM Confocal). Fluorescence intensities from five cells in two independent images were quantified using custom Matlab (Mathworks) software.

[5] = biological target: T1, human cMet on cells (HT29 human …); test: confocal microscopy, S114 versus NIH3T3 cells, 5 µM peptide
From the text: (§2) FIG. 11. Peptide validation with mouse cells in vitro. […] Two-way ANOVA models were fit with terms for 6 conditions and 6 replicate slides on log-transformed data. Measurements were an average of 5 randomly chosen cells on 6 slides for each condition. […] An ANOVA model was fit to log-transformed data with terms for 6 conditions. There were 6 replicate slides per condition and 10 cells measured per slide.
(§3) HT29, SW480, S114 and NIH3T3 cells were inoculated in 12-well cell culture plates with circle glass coverslips to about 80% confluence. The cells were blocked with 1×PBS plus 2% BSA for 1 hour at 4° C., then were incubated with 5 μM peptides for 10 min at RT in the dark, washed thrice, and fixed with 4% PFA for 5 min, washed with 1×PBS, then mounted on glass slides with ProLong Gold reagent containing DAPI (Invitrogen, Waltham, Mass.).

[6] = biological target: T1, human cMet on cells (HT29 human …); test: confocal microscopy, HT29 cells with control or cMet siRNA, 5 µM peptide
From the text: FIG. 2. In vitro validation with cMet knockdown. […] Fluorescence intensities for D) peptide and E) antibody were reduced with HT29 knockdown cells transfected with sicMet-targeting siRNA. […] A two-way ANOVA model was fit with terms for 6 conditions and 6 replicate slides on log-transformed data. Measurements were an average of 5 randomly chosen cells on 6 slides for each condition.
as §1

[7] = biological target: T1, human cMet on cells (HT29 human …); test: confocal microscopy, S114 cells, reference TLQ*-Cy5.5
From the text: as §2, §3

[8] = biological target: T2, mouse cMet on colonocytes of CPC;Apc mouse colon (mouse, UniProt P16056 25-1379); test: ex vivo NIR fluorescence imaging of excised CPC;Apc mouse colon
T2 construct: whole, on cells; Target in tissue staining; also called cMet (mouse colon adenoma / dysplasia)
T2 sequence (P16056 25-1379): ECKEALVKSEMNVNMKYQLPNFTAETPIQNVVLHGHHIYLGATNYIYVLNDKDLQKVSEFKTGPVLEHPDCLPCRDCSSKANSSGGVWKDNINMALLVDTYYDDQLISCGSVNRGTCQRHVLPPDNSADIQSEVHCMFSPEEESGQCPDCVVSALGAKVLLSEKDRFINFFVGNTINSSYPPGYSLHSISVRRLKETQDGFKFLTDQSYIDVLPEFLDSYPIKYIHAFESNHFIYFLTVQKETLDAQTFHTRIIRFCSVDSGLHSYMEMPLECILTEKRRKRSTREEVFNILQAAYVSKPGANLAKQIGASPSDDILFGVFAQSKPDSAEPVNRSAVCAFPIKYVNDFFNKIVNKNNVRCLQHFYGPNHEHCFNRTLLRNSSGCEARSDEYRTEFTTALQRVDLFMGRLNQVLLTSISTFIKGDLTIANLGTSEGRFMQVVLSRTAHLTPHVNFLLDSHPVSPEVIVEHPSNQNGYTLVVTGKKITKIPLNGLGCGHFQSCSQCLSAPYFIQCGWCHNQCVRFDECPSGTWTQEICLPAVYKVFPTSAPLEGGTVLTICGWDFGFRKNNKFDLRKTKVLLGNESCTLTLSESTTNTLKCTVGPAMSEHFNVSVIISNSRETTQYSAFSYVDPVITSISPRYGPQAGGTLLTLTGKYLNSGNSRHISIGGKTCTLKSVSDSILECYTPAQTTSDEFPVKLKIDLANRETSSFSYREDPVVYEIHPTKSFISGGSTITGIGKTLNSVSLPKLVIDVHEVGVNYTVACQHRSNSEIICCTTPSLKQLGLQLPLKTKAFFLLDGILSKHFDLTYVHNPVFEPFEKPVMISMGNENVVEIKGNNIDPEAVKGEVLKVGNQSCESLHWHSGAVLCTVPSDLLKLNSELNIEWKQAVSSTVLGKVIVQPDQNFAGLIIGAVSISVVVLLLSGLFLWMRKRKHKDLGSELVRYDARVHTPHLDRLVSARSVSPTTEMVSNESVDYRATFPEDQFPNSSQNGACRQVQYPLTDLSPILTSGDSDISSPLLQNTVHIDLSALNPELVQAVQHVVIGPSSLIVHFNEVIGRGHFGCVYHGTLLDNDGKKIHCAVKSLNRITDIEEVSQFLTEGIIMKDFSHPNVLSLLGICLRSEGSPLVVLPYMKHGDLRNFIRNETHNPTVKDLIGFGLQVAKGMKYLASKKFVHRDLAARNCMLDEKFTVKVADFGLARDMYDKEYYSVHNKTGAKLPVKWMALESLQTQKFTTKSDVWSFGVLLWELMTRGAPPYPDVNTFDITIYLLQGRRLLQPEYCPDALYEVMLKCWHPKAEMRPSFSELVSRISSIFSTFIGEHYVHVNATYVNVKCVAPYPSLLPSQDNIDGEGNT
Protocol: After imaging was completed, the mice were euthanized. The colon was resected and divided longitudinally, the colon was excised, flushed with PBS, and opened longitudinally for imaging with the NIR fluorescence imaging system (Pearl®, LI-COR Biosciences). Images were collected with […] resolution using λex=685 nm and λem=720 nm. Images were analyzed with custom software (Image Studio, Li-Cor Biosciences). The normal colon region with an equal area adjacent to the polyps was used to measure background. Prism software (v6.02, GraphPad) was used to plot data.
After imaging was completed, the CPC;Apc mice were euthanized, and the colon was excised and divided longitudinally to expose the mucosal surface for collection of macroscopic white light and fluorescence images, FIGS. 5 L,M and 13A, B. The polyp locations co-localized on white light and fluorescence images, FIG. 13C. […] Immunohistochemistry was performed with a known antibody to validate increased expression of cMet in mouse dysplasia, FIG. 13E, by comparison with normal colonic mucosa, FIG. 13F.

[9] = biological target: T1, human cMet on cells (HT29 human …); test: flow cytometry, QQT*-Cy5.5 at 0-200 nmol/L on HT29 cells, 1 hour at 4 °C
Protocol: We assessed the binding affinity of QQT*-Cy5.5 to HT29 cells by measuring the apparent dissociation constant. HT29 cells were blocked with 0.5% BSA, and then approximately 10⁵ cells were incubated with QQT*-Cy5.5 at concentrations of 0, 10, 25, 50, 75, 100, 125, 150, or 200 nmol/L for 1 hour at 4° C. Cells then were washed 3 times with 1×PBS containing 0.5% BSA to remove unbound peptides before analysis with flow cytometry (FACS Canto; BD Biosciences, San Jose, Calif.). Sample means were used to calculate the equilibrium dissociation constant KD using nonlinear regression analysis with Origin 6.1 data analysis software (OriginLab, Northampton, Mass.). […] I₀ and Iₘₐₓ are the initial and maximum fluorescence intensities, corresponding to no peptide and peptide saturation, respectively, and [X] represents the concentration of the bound peptide.³⁴
Specific binding of QQT*-Cy5.5 to cMet was confirmed by adding unlabeled QQT* to compete for binding. […] An apparent dissociation constant of kd=57 nM was measured for binding by QQT*-Cy5.5 to HT29 cells using flow cytometry, FIG. 3C, and an apparent association time constant of k=0.62 min⁻¹ (1.6 min) was measured for the same cells, supporting rapid binding with topical administration, FIG. 3D.

fold change of mean intensity, HT29 (cMet+) versus SW480 (cMet-) cells [1]: 4.3 fold | fold change of mean intensity, S114 (cMet+) versus NIH3T3 (cMet-) cells [2]: 6.7 fold | fold reduction of fluorescence intensity with knockdown of cMet (siCL versus sicMet HT29 cells) [3]: 4.1 fold
Molecule: primary monoclonal rabbit anti-cMet antibody (Cell Signaling Technology, #8198) detected with AF488-labeled secondary antibody

fold change of mean intensity, HT29 (cMet+) versus SW480 (cMet-) cells [4]: 0.85 fold | fold change of mean intensity, S114 (cMet+) versus NIH3T3 (cMet-) cells [5]: 0.72 fold | fold change of fluorescence intensity with knockdown of cMet (siCL versus sicMet HT29 cells) [6]: 0.96 fold
B1: TLQ*-Cy5.5 (scrambled control peptide TLQWNQS linked through a GGGSK linker to Cy5.5) (peptide)
peptide: TLQWNQSGGGSK(Cy5.5″)-NH2
notes: Scrambled control of QQT*-Cy5.5; also called TQL*-Cy5.5

fold fluorescence intensity versus TLQ*-Cy5.5 [7]: 7 fold | fold change of mean intensity, HT29 (cMet+) versus SW480 (cMet-) cells [4]: 2.1 fold | fold change of mean intensity, S114 (cMet+) versus NIH3T3 (cMet-) cells [5]: 2.4 fold | binding result [8]: binds | fold reduction of fluorescence intensity with knockdown of cMet (siCL versus sicMet HT29 cells) [6]: 2.9 fold | Kd [9]: 57 nM
B2: QQT*-Cy5.5 (peptide QQTNWSL linked at its C-terminus through a GGGSK linker to the fluorophore Cy5.5) (peptide)
peptide: QQTNWSLGGGSK(Cy5.5)-NH2
notes: Linear monomer made by Fmoc solid-phase synthesis; m/z 1827.67; also called target peptide
